Reference: patent publication US7723070B2, “Overexpression of aminoacyl-tRNA synthetases for efficient production of engineered proteins containing amino acid analogues” (California Institute of Technology, priority 2000, dated 2010)

Test system: B834(DE3) or CAG18491 hosts with pQE15/pREP4 or pQE15-MRS/pREP4
Experiment: Translational activity: mDHFR synthesis, statements covering several bacterial hosts (with pQE15 or pQE15-MRS)
Format: cell-based, E. coli
Conditions: each of CAG18491/pQE15/pREP4 and CAG18491/pQE15-MRS/pREP4
Procedure: Methionine analogues were synthesized via alkylation of diethylacetamidomalonate, as previously described (As described in Example I, infra; J. C. M. van Hest, D. A. Tirrell, FEBS Lett. 1998, 428, 68-70). Cultures of B834(DE3)/pQE15-MRS/pREP4 or B834(DE3)/pQE15/pREP4 or CAG18491/pQE15-MRS/pREP4 or CAG18491/pQE15/pREP4 in M9AA media were grown to an optical density of 0.90, and the cells were sedimented by centrifugation. The M9AA medium was prepared by supplementing sterile M9 medium with […] of each of the amino acids, 1 mM MgSO4, 0.2 wt % glucose, 1 mg/ml thiamine chloride, and […] calcium chloride. The antibiotics ampicillin and kanamycin were added at concentrations of 200 mg/l and 35 mg/l, respectively.
Cells were washed three times with M9 salts and resuspended to an optical density of 0.90 in M9 test media containing 19 amino acids plus 1) neither methionine nor analogue (negative control); 2) methionine (60 mg/liter, positive control); or 3) an analogue of interest (60 mg/liter). To test the effect of increasing the level of supplementation of the analogues, a set of experiments was also conducted in which the medium was supplemented with 500 mg/liter of methionine or the amino acid analogue. Expression of mDHFR was induced by addition of 0.4 mM isopropyl β-D-thiogalactopyranoside (IPTG), and protein synthesis was monitored after 4.5 hours.

B1: mDHFR: mouse dihydrofolate reductase with N-terminal hexahistidine sequence, test protein (protein, UniProt P00375 2-187, looked up)
Dihydrofolate reductase: VRPLNCIVAVSQNMGIGKNGDLPWPPLRNEFKYFQRMTTTSSVEGKQNLVIMGRKTWFSIPEKNRPLKDRINIVLSRELKEPPRGAHFLAKSLDDALRLIEQPELASKVDMVWIVGGSSVYQEAMNQPGHLRLFVTRIMQEFESDTFFPEIDLGKYKLLPEYPGVLSEVQEEKGIKYKFEVYEKKD
modifications: N-terminal His6 tag
Question: B1 was tested. Which “yield of mDHFR in M9AA medium” value did it give?
Answer: The value was “approximately 30 mg”.
